These results are taken from patent US20060073152A1 (Genentech, published 2006).

Positions of bridges follow the written chain, without caps; N, C: chain ends. No end group written: not given here.

B1: RA (peptide)
peptide: RNEDPCVVLLEMGLECWEGV
modifications: not fully specified (bridges); cysteine pairing not given here; also: phage-displayed
notes: on phage
B2: RB-B16 (peptide)
peptide: HRLVEDICLPRWGCLWGNDF
modifications: not fully specified (bridges); cysteine pairing not given here; also: phage-displayed
notes: on phage
B3: HC-R10 (peptide)
peptide: QRDMGDICLPRWGCLWEDGV
modifications: not fully specified (bridges); cysteine pairing not given here; also: phage-displayed
notes: on phage
B4: RB-B1 (peptide)
peptide: RWQTEDVCLPKWGCLFGDGV
modifications: not fully specified (bridges); cysteine pairing not given here; also: phage-displayed
notes: on phage
B5: RB-B6 (peptide)
peptide: QWQMENVCLPKWGCLWEELD
modifications: not fully specified (bridges); cysteine pairing not given here; also: phage-displayed
notes: on phage
B6: RB-B11 (peptide)
peptide: QWQVMDICLPRWGCLWADEY
modifications: not fully specified (bridges); cysteine pairing not given here; also: phage-displayed
notes: on phage

T3 sequence (P49065 25-608 limits assumed): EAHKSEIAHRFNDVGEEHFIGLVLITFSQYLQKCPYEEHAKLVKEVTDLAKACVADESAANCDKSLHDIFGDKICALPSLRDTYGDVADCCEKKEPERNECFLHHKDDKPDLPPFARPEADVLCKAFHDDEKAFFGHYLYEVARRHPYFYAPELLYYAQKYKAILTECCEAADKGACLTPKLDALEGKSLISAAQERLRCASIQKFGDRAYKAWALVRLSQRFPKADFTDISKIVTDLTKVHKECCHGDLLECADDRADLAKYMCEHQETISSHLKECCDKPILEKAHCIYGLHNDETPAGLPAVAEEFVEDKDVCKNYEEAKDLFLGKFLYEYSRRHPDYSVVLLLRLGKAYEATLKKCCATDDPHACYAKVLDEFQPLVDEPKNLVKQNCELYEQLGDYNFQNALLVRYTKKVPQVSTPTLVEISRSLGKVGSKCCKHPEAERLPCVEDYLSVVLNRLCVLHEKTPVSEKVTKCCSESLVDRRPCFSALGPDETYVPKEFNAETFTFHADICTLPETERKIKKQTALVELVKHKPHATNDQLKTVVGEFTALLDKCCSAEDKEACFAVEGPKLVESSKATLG
T1 sequence (P02770 25-608 limits assumed): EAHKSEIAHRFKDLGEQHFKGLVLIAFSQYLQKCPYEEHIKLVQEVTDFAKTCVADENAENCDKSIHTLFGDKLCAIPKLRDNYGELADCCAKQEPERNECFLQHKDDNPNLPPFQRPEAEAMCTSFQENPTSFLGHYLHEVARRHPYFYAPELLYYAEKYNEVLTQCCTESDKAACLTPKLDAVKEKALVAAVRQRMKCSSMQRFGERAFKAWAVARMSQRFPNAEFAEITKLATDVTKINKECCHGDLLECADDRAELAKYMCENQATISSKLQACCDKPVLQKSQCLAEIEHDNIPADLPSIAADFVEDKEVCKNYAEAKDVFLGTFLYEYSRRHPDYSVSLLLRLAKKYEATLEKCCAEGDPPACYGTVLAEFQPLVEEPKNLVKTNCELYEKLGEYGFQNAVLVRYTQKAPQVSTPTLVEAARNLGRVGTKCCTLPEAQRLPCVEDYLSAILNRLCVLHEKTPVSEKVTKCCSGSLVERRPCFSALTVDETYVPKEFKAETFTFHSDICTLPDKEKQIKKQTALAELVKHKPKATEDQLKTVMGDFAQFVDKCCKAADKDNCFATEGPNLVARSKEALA
T4 sequence (P07724 25-608 limits assumed): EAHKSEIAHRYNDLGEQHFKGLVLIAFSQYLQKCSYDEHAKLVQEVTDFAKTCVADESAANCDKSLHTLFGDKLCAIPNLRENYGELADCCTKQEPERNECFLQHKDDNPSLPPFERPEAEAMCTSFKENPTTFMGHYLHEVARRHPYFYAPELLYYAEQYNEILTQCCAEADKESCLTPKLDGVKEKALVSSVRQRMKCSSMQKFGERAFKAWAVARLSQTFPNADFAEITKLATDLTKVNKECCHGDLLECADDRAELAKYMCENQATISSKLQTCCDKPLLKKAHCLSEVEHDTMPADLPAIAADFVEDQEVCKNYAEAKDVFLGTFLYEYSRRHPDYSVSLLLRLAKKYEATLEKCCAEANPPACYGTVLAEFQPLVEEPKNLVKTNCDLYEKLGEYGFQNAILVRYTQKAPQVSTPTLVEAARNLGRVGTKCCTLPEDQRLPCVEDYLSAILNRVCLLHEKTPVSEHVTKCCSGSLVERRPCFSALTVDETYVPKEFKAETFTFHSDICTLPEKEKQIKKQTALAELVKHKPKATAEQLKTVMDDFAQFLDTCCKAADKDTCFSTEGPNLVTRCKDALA

One assay addresses T1, rat serum albumin (rat, UniProt P02770 25-608).
T1 construct: also called Rat SA; RSA
Nature of the assay: phage binding.
With B1, the binding result is “binds”.
Same read-out and setting: the same measure for DTCVDLVRLGLECWG (on phage; also called Library RD) [RD]: “binds”; for DLCLRDWGCLW (on phage; also called Library RC) [RC]: “binds”.

Another assay deals with T2, human serum albumin (human, UniProt P02768 25-609).
T2 construct: also called Human SA; HuSA
The experiment in a line: phage binding.
Take B2: the binding result is on record as “binds”.
Same read-out and setting: then B3, with “binds”.
Same read-out and setting: the same measure for LIFMEDVCLPQWGCLWEDGV (on phage) [RB-R16]: “binds”; for QGLIGDICLPRWGCLWGDSV (on phage; also called RB-R8) [RB-B12]: “binds”.

A further assay addresses T3, rabbit serum albumin (rabbit, UniProt P49065 25-608).
T3 construct: also called Rabbit SA; BuSA
Nature of the assay: phage binding.
For B2, the binding result is on record as “binds”.
B3: the binding result is “binds”.
Consider LIFMEDVCLPQWGCLWEDGV (on phage) [RB-R16], for which the binding result is given as “binds”.
Regarding QGLIGDICLPRWGCLWGDSV (on phage; also called RB-R8) [RB-B12], the binding result is “binds”.
The same measure, in the same setting: the same measure for B4: “binds”.

Another assay deals with T1, rat serum albumin. Nature of the assay: phage binding. The source holds these as a separate data set.
Take B2: the binding result was “binds”.
On the same count and under the same terms, then B3, with “binds”; and LIFMEDVCLPQWGCLWEDGV (on phage) [RB-R16], with “binds”.
On the same count and under the same terms, then QGLIGDICLPRWGCLWGDSV (on phage; also called RB-R8) [RB-B12], with “binds”; and B4, with “binds”.

In a further assay the target is T2, human serum albumin. Nature of the assay: phage binding. The source holds these as a separate data set.
As for NRQMEDICLPQWGCLWGDDF (on phage) [RB-H6], the binding result is given as “binds”.
Same read-out and setting: the same measure for QRHPEDICLPRWGCLWGDDD (on phage) [RB-H1]: “binds”; for LWAMEDICLPKWGCLWEDDF (on phage) [RB-B4]: “binds”; for LRLMDNICLPRWGCLWDDGF (not fully specified (bridges); cysteine pairing not given here, on phage) [RB-B7]: “binds”.
Still for that read-out and setting: then HSQMEDICLPRWGCLWGDEL (not fully specified (bridges); cysteine pairing not given here, on phage) [RB-B8], with “binds”; and QWHMEDICLPQWGCLWGDVL (on phage) [RB-B5], with “binds”.
The same measure, in the same setting: the same measure for B5: “binds”.
For the molecule B6, the binding result is “binds”.

The target in the next assay is T3, rabbit serum albumin. The experiment in a line: phage binding. The source holds these as a separate data set.
On to NRQMEDICLPQWGCLWGDDF (on phage) [RB-H6], for which the binding result was “binds”.
On to QRHPEDICLPRWGCLWGDDD (on phage) [RB-H1], for which the binding result is on record as “binds”.
On the same count and under the same terms, the same measure for LWAMEDICLPKWGCLWEDDF (on phage) [RB-B4]: “binds”; for LRLMDNICLPRWGCLWDDGF (not fully specified (bridges); cysteine pairing not given here, on phage) [RB-B7]: “binds”.
For HSQMEDICLPRWGCLWGDEL (not fully specified (bridges); cysteine pairing not given here, on phage) [RB-B8], the binding result is “binds”.
Take QWHMEDICLPQWGCLWGDVL (on phage) [RB-B5]: the binding result is reported as “binds”.
The same measure, in the same setting: the same measure for B5: “binds”; for B6: “binds”.

The next assay deals with T1, rat serum albumin. Nature of the assay: phage binding. This is another data set of the same source.
NRQMEDICLPQWGCLWGDDF (on phage) [RB-H6]: the binding result is listed as “binds”.
With QRHPEDICLPRWGCLWGDDD (on phage) [RB-H1], the binding result was “binds”.
As for LWAMEDICLPKWGCLWEDDF (on phage) [RB-B4], the binding result is on record as “binds”.
On the same count and under the same terms, then LRLMDNICLPRWGCLWDDGF (not fully specified (bridges); cysteine pairing not given here, on phage) [RB-B7], with “binds”; and HSQMEDICLPRWGCLWGDEL (not fully specified (bridges); cysteine pairing not given here, on phage) [RB-B8], with “binds”.
For QWHMEDICLPQWGCLWGDVL (on phage) [RB-B5], the binding result is recorded as “binds”.
Still for that read-out and setting: then B5, with “binds”.
Same read-out and setting: then B6, with “binds”.

The target of the next assay is T3, rabbit serum albumin. The experiment in a line: peptide competition for albumin.
For Ac-RLMEDICLPRWGCLWEDD-NH2 (cysteine pairing not given here, free peptide) [SA10], the IC50 (in general, the midpoint of a concentration-inhibition curve) is 86 nM.
Still for that read-out and setting: then QGLIGDICLPRWGCLWGDSV-NH2 (not fully specified (bridges); cysteine pairing not given here, free peptide) [SA07], with 30 nM.
On the same count and under the same terms, then DICLPRWGCLW-NH2 (not fully specified (bridges); cysteine pairing not given here, free peptide) [SA04], with 8540 nM; and MEDICLPRWGCLWED-NH2 (not fully specified (bridges); cysteine pairing not given here, free peptide) [SA05], with 804 nM; and QRLMEDICLPRWGCLWEDDF-NH2 (disulfide 8-14 (inferred)) [SA06], with 128 nM.
Still for that read-out and setting: the same measure for Ac-MEDICLPRWGCLWEDD-NH2 (not fully specified (bridges); cysteine pairing not given here, free peptide) [SA11]: 1210 nM; for Ac-MEDICLPRWGCLWED-NH2 (not fully specified (bridges); cysteine pairing not given here, free peptide) [SA12]: 1760 nM; for Ac-EDICLPRWGCLWEDD-NH2 (not fully specified (bridges); cysteine pairing not given here, free peptide) [SA09]: 1690 nM.

In another assay the target is T1, rat serum albumin. The experiment in a line: peptide competition for albumin.
The molecule Ac-RLMEDICLPRWGCLWEDD-NH2 (cysteine pairing not given here, free peptide) [SA10] yielded an IC50 of 77 nM.
Same read-out and setting: then QGLIGDICLPRWGCLWGDSV-NH2 (not fully specified (bridges); cysteine pairing not given here, free peptide) [SA07], with 35 nM; and DICLPRWGCLW-NH2 (not fully specified (bridges); cysteine pairing not given here, free peptide) [SA04], with 787 nM.
MEDICLPRWGCLWED-NH2 (not fully specified (bridges); cysteine pairing not given here, free peptide) [SA05] gave a half-maximal inhibitory concentration (IC50) of 161 nM.
Still for that read-out and setting: the same measure for QRLMEDICLPRWGCLWEDDF-NH2 (disulfide 8-14 (inferred)) [SA06]: 68 nM.
In turn, Ac-MEDICLPRWGCLWEDD-NH2 (not fully specified (bridges); cysteine pairing not given here, free peptide) [SA11] had an IC50 of 232 nM.
The same measure, in the same setting: the same measure for Ac-MEDICLPRWGCLWED-NH2 (not fully specified (bridges); cysteine pairing not given here, free peptide) [SA12]: 205 nM; for Ac-EDICLPRWGCLWEDD-NH2 (not fully specified (bridges); cysteine pairing not given here, free peptide) [SA09]: 258 nM.

A further assay has as its target T4, mouse serum albumin (mouse, UniProt P07724 25-608).
T4 construct: also called Mouse SA; MuSA
The experiment in a line: peptide competition for albumin.
For the molecule QGLIGDICLPRWGCLWGDSV-NH2 (not fully specified (bridges); cysteine pairing not given here, free peptide) [SA07], the IC50 came to 6 nM.
The same measure, in the same setting: then DICLPRWGCLW-NH2 (not fully specified (bridges); cysteine pairing not given here, free peptide) [SA04], with 40 nM; and MEDICLPRWGCLWED-NH2 (not fully specified (bridges); cysteine pairing not given here, free peptide) [SA05], with 6 nM; and QRLMEDICLPRWGCLWEDDF-NH2 (disulfide 8-14 (inferred)) [SA06], with 8 nM.
The same measure, in the same setting: then Ac-MEDICLPRWGCLWEDD-NH2 (not fully specified (bridges); cysteine pairing not given here, free peptide) [SA11], with 17 nM; and Ac-MEDICLPRWGCLWED-NH2 (not fully specified (bridges); cysteine pairing not given here, free peptide) [SA12], with 13 nM.
Consider Ac-EDICLPRWGCLWEDD-NH2 (not fully specified (bridges); cysteine pairing not given here, free peptide) [SA09], for which the IC50 was 6 nM.

In the next assay the target is T3, rabbit serum albumin. The experiment in a line: peptide competition; head prints RSA, read as rabbit.
With DICLPRWGCLW-NH2 (not fully specified (bridges); cysteine pairing not given here, free peptide) [SA04], the IC50 stood at 8540 nM.
